Data: article PMC4456216 (Nature structural & molecular biology, 2015)

B1: BMAL2 transactivation domain (TAD), residues 540-579 (domain or fragment, mouse, UniProt Q2VPD4 540-579, looked up)
chain: LGFDVLCDSDSIDMAAFMNYLEAEGGLGDPGDFSDIQWAL
B2: mouse CBP KIX domain (domain or fragment)
chain: not shown

Tests used:
[1] = molecular target: B1; assay: ITC
[2] = molecular target: p300 KIX domain (residues 565-653) (mouse, UniProt B2RWS6 565-653); assay: NMR titration
Chain of p300 KIX domain (residues 565-653) (B2RWS6 565-653): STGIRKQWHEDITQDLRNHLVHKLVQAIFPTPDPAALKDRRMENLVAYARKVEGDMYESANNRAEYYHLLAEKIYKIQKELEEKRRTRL

| Binder | stoichiometry N [1] | binding result [2] |
| --- | --- | --- |
| MVNHAEASRLNIERMKQIYQQLSRYRGLGLLASV [mouse CRY1 CC peptide (residues 470-503)] | 0.7 | – |
| B1 | – | binds |
| B2 | 0.7 | – |
